Assays:
HLA-A*29:02 = assay: IEDB peptide-MHC binding, purified MHC/competitive/fluorescence; filed as Kd, often an IC50 or EC50 that approximates it; ≥ and ≤ were set here for values at or beyond the usual limits of such assays
HLA-A*01:01 = assay: as above
HLA-A*80:01 = assay: IEDB peptide-MHC binding, purified MHC/direct/fluorescence; filed as Kd, often an IC50 or EC50 that approximates it; ≥ and ≤ were set here for values at or beyond the usual limits of such assays
HLA-B*58:01 = assay: IEDB peptide-MHC binding, purified MHC/competitive/fluorescence; filed as Kd, often an IC50 or EC50 that approximates it; ≥ and ≤ were set here for values at or beyond the usual limits of such assays
HLA-B*15:02 = assay: as above
HLA-C*12:03 = assay: IEDB peptide-MHC binding, purified MHC/direct/fluorescence; filed as Kd, often an IC50 or EC50 that approximates it; ≥ and ≤ were set here for values at or beyond the usual limits of such assays
HLA-C*05:01 = assay: as above; settings: source organism: Listeria monocytogenes serotype 4b str. H7858
HLA-C*03:03 = assay: as above
HLA-A*24:03 = assay: IEDB peptide-MHC binding, purified MHC/competitive/fluorescence; filed as Kd, often an IC50 or EC50 that approximates it; ≥ and ≤ were set here for values at or beyond the usual limits of such assays
HLA-B*15:17 = assay: as above
HLA-B*15:01 [1] = assay: as above
HLA-B*39:01 = assay: as above
HLA-B*18:01 = assay: as above
HLA-B*57:01 = assay: as above
HLA-A*68:02 = assay: as above
HLA-A*02:01 [2] = assay: as above
HLA-A*02:16 = assay: as above
HLA-A*23:01 = assay: as above
HLA-A*02:19 = assay: as above
HLA-A*02:03 = assay: as above
HLA-A*03:01 = assay: as above
HLA-B*46:01 = assay: as above
HLA-A*69:01 = assay: as above
HLA-B*27:03 = assay: as above
HLA-A*26:01 = assay: as above
HLA-A*02:12 = assay: as above
HLA-B*51:01 = assay: as above
HLA-A*02:11 = assay: as above
HLA-A*31:01 = assay: as above; settings: source organism: Entamoeba histolytica HM-1:IMSS
HLA-B*07:02 [3] = assay: as above
HLA-C*15:02 = assay: IEDB peptide-MHC binding, purified MHC/direct/fluorescence; filed as Kd, often an IC50 or EC50 that approximates it; ≥ and ≤ were set here for values at or beyond the usual limits of such assays
HLA-C*07:02 = assay: as above
HLA-C*14:02 = assay: as above; settings: source organism: Homo sapiens
HLA-B*15:01 [4] = assay: IEDB peptide-MHC binding, purified MHC/competitive/fluorescence; ≥ and ≤ were set here for values at or beyond the usual limits of such assays; settings: source organism: Zaire ebolavirus
HLA-A*24:02 = assay: as above; settings: source organism: Zaire ebolavirus
HLA-B*08:01 [5] = assay: as above; settings: source organism: Zaire ebolavirus
HLA-A*02:01 [6] = assay: as above; settings: source organism: Zaire ebolavirus
HLA-B*07:02 [7] = assay: as above; settings: source organism: Zaire ebolavirus
HLA-B*08:01 [8] = assay: IEDB peptide-MHC binding, purified MHC/competitive/fluorescence; filed as Kd, often an IC50 or EC50 that approximates it; ≥ and ≤ were set here for values at or beyond the usual limits of such assays; settings: source organism: Yersinia pestis Nepal516
[9] = source organism: human gammaherpesvirus 4
[10] = source organism: Listeria monocytogenes serotype 4b str. H7858
[11] = source organism: Orthomarburgvirus marburgense
[12] = source organism: Entamoeba histolytica HM-1:IMSS
[13] = source organism: Vibrio cholerae V52
[14] = source organism: Salmonella enterica subsp. enterica serovar Typhi
[15] = source organism: Shigella flexneri 5 str. 8401
[16] = source organism: Escherichia coli O139:H28 str. E24377A
[17] = source organism: Yersinia pestis Nepal516
[18] = source organism: Escherichia coli E22

AFFAERLYY showed a Kd (HLA-A*29:02; source organism: Mus musculus) of 0.0002 µM, a Kd (HLA-A*01:01; source organism: Mus musculus) of no less than 20 µM and a Kd (HLA-A*80:01; source organism: Mus musculus) of 0.0195 µM.
ATVKGMQSY showed a Kd (HLA-B*58:01; [9]) of 4.38 µM.
With FLMYPNNIF the Kd (HLA-B*15:02; [10]) was 0.0057 µM, the Kd (HLA-C*12:03; [10]) was 0.178 µM and the Kd (HLA-C*05:01) was 0.266 µM. It also gave a Kd (HLA-C*03:03; [10]) of 0.015 µM.
GIADFIIFK was tested, and the Kd (HLA-A*24:03; [11]) was no less than 20 µM, the Kd (HLA-B*15:17; [11]) was no less than 20 µM and the Kd (HLA-B*15:01 [1]; [11]) was no less than 20 µM. It also gave a Kd (HLA-B*39:01; [11]) of no less than 20 µM, a Kd (HLA-B*18:01; [11]) of no less than 20 µM and a Kd (HLA-B*57:01; [11]) of no less than 20 µM. It also gave a Kd (HLA-A*68:02; [11]) of no less than 20 µM, a Kd (HLA-A*02:01 [2]; [11]) of no less than 20 µM and a Kd (HLA-A*02:16; [11]) of no less than 20 µM. For the same sequence, the Kd (HLA-A*23:01; [11]) was no less than 20 µM, the Kd (HLA-A*02:19; [11]) was no less than 20 µM and the Kd (HLA-A*02:03; [11]) was no less than 20 µM. The Kd (HLA-A*03:01; [11]) was 0.188 µM, the Kd (HLA-B*46:01; [11]) was no less than 20 µM and the Kd (HLA-A*69:01; [11]) was no less than 20 µM. It also gave a Kd (HLA-B*27:03; [11]) of no less than 20 µM, a Kd (HLA-A*26:01; [11]) of no less than 20 µM and a Kd (HLA-A*02:12; [11]) of no less than 20 µM. The Kd (HLA-B*51:01; [11]) was no less than 20 µM, the Kd (HLA-A*29:02; [11]) was no less than 20 µM and the Kd (HLA-A*02:11; [11]) was no less than 20 µM.
HLWNHNQQM was tested, and the Kd (HLA-B*15:02; source organism: Venezuelan equine encephalitis virus) was 0.0499 µM.
IGKMNKHYK gave a Kd (HLA-A*24:03; [12]) of no less than 20 µM, a Kd (HLA-B*15:17; [12]) of no less than 20 µM and a Kd (HLA-B*15:01 [1]; [12]) of no less than 20 µM. It also gave a Kd (HLA-B*39:01; [12]) of no less than 20 µM, a Kd (HLA-B*18:01; [12]) of no less than 20 µM and a Kd (HLA-B*57:01; [12]) of no less than 20 µM. The Kd (HLA-A*68:02; [12]) was no less than 20 µM, the Kd (HLA-A*02:01 [2]; [12]) was no less than 20 µM and the Kd (HLA-A*31:01) was 0.16 µM. For the same sequence, the Kd (HLA-A*02:16; [12]) was no less than 20 µM, the Kd (HLA-A*02:19; [12]) was no less than 20 µM and the Kd (HLA-A*02:03; [12]) was no less than 20 µM. It also gave a Kd (HLA-A*03:01; [12]) of no less than 20 µM, a Kd (HLA-B*46:01; [12]) of no less than 20 µM and a Kd (HLA-A*69:01; [12]) of no less than 20 µM. It also gave a Kd (HLA-B*27:03; [12]) of no less than 20 µM, a Kd (HLA-A*26:01; [12]) of no less than 20 µM and a Kd (HLA-A*02:12; [12]) of no less than 20 µM. For the same sequence, the Kd (HLA-B*51:01; [12]) was no less than 20 µM, the Kd (HLA-A*29:02; [12]) was no less than 20 µM and the Kd (HLA-A*02:11; [12]) was no less than 20 µM.
For IGYRLGMGK, the Kd (HLA-A*24:03; [13]) was no less than 20 µM, the Kd (HLA-B*15:17; [13]) was no less than 20 µM and the Kd (HLA-B*15:01 [1]; [13]) was no less than 20 µM. For the same sequence, the Kd (HLA-B*39:01; [13]) was no less than 20 µM, the Kd (HLA-B*18:01; [13]) was no less than 20 µM and the Kd (HLA-B*57:01; [13]) was no less than 20 µM. For the same sequence, the Kd (HLA-A*68:02; [13]) was no less than 20 µM, the Kd (HLA-A*02:01 [2]; [13]) was no less than 20 µM and the Kd (HLA-A*02:16; [13]) was no less than 20 µM. It also gave a Kd (HLA-A*23:01; [13]) of no less than 20 µM, a Kd (HLA-A*02:19; [13]) of no less than 20 µM and a Kd (HLA-A*02:03; [13]) of no less than 20 µM. For the same sequence, the Kd (HLA-A*03:01; [13]) was 0.0135 µM, the Kd (HLA-B*46:01; [13]) was no less than 20 µM and the Kd (HLA-A*69:01; [13]) was no less than 20 µM. It also gave a Kd (HLA-B*27:03; [13]) of no less than 20 µM, a Kd (HLA-A*26:01; [13]) of no less than 20 µM and a Kd (HLA-A*02:12; [13]) of no less than 20 µM. For the same sequence, the Kd (HLA-B*51:01; [13]) was no less than 20 µM, the Kd (HLA-A*29:02; [13]) was no less than 20 µM and the Kd (HLA-A*02:11; [13]) was no less than 20 µM.
Work on ILLARLFLY yielded a Kd (HLA-A*03:01; [9]) of 2.06 µM and a Kd (HLA-A*80:01; [9]) of 0.0033 µM.
Work on ITLKVFAGY yielded a Kd (HLA-A*03:01; [14]) of 2.69 µM, a Kd (HLA-B*58:01; [14]) of 0.0116 µM and a Kd (HLA-A*26:01; [14]) of 0.287 µM.
Work on KVHLTPAQL yielded a Kd (HLA-B*07:02 [3]; [15]) of 0.154 µM and a Kd (HLA-C*15:02; [15]) of no less than 20 µM.
LPRDASQIT showed a Kd (HLA-B*51:01; [16]) of no less than 20 µM and a Kd (HLA-B*07:02 [3]; [16]) of 0.0974 µM.
Work on MLYPRVWPY yielded a Kd (HLA-A*29:02; source organism: Homo sapiens) of no more than 0.0001 µM, a Kd (HLA-A*01:01; source organism: Homo sapiens) of 1.08 µM and a Kd (HLA-C*15:02; source organism: Homo sapiens) of no less than 20 µM. The Kd (HLA-C*07:02; source organism: Homo sapiens) was 0.238 µM and the Kd (HLA-C*14:02) was 0.246 µM.
With MMQGTPYVY the Kd (HLA-B*15:02; source organism: Vibrio antiquarius) was 0.0059 µM.
With PVMNHKNKF the IC50 (HLA-B*15:01 [4]) was no less than 364 µM, the IC50 (HLA-A*24:02) was 0.106 µM and the IC50 (HLA-B*08:01 [5]) was 11 µM.
In the case of RTAKVKNEV, the IC50 (HLA-A*02:01 [6]) is reported as 57.2 µM, the IC50 (HLA-A*24:02) is reported as no less than 75.3 µM and the IC50 (HLA-B*08:01 [5]) is reported as 56.8 µM. For the same sequence, the IC50 (HLA-B*07:02 [7]) was 10.3 µM.
In the case of SDMDYHKIL, the IC50 (HLA-A*02:01 [6]) is reported as no less than 241 µM, the IC50 (HLA-A*24:02) is reported as no less than 145 µM and the IC50 (HLA-B*08:01 [5]) is reported as no less than 177 µM.
SLFVRSAGQ showed a Kd (HLA-B*15:02; source organism: Burkholderia mallei JHU) of no less than 20 µM.
With VVEKQSGLY the Kd (HLA-A*80:01; source organism: West Nile virus) was 0.0008 µM.
For YIYTRSFQM, the Kd (HLA-B*15:01 [1]; [17]) was 0.351 µM, the Kd (HLA-A*02:01 [2]; [17]) was 0.0004 µM and the Kd (HLA-B*08:01 [8]) was 0.0487 µM. For the same sequence, the Kd (HLA-A*26:01; [17]) was 0.593 µM and the Kd (HLA-C*07:02; [17]) was 0.163 µM.
YMNGTMSQV showed a Kd (HLA-C*12:03; source organism: Homo sapiens) of 0.088 µM, a Kd (HLA-C*15:02; source organism: Homo sapiens) of 0.372 µM and a Kd (HLA-C*03:03; source organism: Homo sapiens) of 0.371 µM.
YQTYVSPGA was tested, and the Kd (HLA-A*24:03; [18]) was no less than 20 µM, the Kd (HLA-B*15:17; [18]) was no less than 20 µM and the Kd (HLA-B*15:01 [1]; [18]) was no less than 20 µM. It also gave a Kd (HLA-B*18:01; [18]) of no less than 20 µM, a Kd (HLA-B*57:01; [18]) of no less than 20 µM and a Kd (HLA-A*02:01 [2]; [18]) of 0.0004 µM. The Kd (HLA-A*02:16; [18]) was no more than 0.0001 µM, the Kd (HLA-A*23:01; [18]) was no less than 20 µM and the Kd (HLA-A*02:19; [18]) was no less than 20 µM. For the same sequence, the Kd (HLA-A*03:01; [18]) was no less than 20 µM, the Kd (HLA-B*46:01; [18]) was no less than 20 µM and the Kd (HLA-A*69:01; [18]) was no less than 20 µM. For the same sequence, the Kd (HLA-B*27:03; [18]) was no less than 20 µM, the Kd (HLA-A*26:01; [18]) was no less than 20 µM and the Kd (HLA-A*02:12; [18]) was no less than 20 µM. The Kd (HLA-B*51:01; [18]) was no less than 20 µM, the Kd (HLA-A*29:02; [18]) was no less than 20 µM and the Kd (HLA-A*02:11; [18]) was no less than 20 µM.
